One assay concerns B16-F1 melanomas. Put plainly: B16-F1 melanoma model, adoptive T cell therapy with anti-platelet agents. It is filed as in vivo, C57BL/6 mice. To be noted: no adoptive T cells; Cy on day 7. The text has this: To establish the clinical relevance of the suppressive effect of platelets on anti-tumor immunity, the impact of platelets on immunotherapy was addressed pharmacologically. B16-F1 melanomas were established in C57BL/6 mice after subcutaneous injection on day 0, followed by lymphodepletion with Cy on day 7, and infusion of ex vivo primed Pmel cells on day 8, along with anti-platelet (AP) agents: aspirin and clopidogrel. Aspirin and clopidogrel inhibit platelet activation by blocking cycloxyenase and ADP receptors, respectively.
B16-F1 tumor model and adoptive T cell therapy (ACT). […] (B16 EV, and B16 GARP-Fc; n=5-7 each group) of 6-8-week old female C57BL/6J mice were inoculated s.q. in the right flank using 2.5×10^5 cells and, when specified, treated with one intra-peritoneal injection of CY (4 mg/mouse) a day prior to adoptive T cell therapy. […] Primary tumor growth was monitored 3 times per week with vernier calipers. Peripheral adoptively transferred Pmel cells were monitored at 2, 3, 4, and 5 weeks after ACT. Ex-vivo Pmel IFN-γ production was assess stimulating Pmel cells for 3 h in presence of hgp100 and brefeldin A (BFA) at 37° C. and analyzed by flow cytometry.

For a further assay, the system named is active TGF-β1. Nature of the assay: Active TGF-β ELISA of purified recombinant GARP-Fc. It is filed as binding. To be noted: GARP-Fc purified from CHO conditioned medium. The method, then: Purification of GARP-Fc. For purification of GARP-Fc protein GARP-Fc, MigR1 vector was transfected into Chinese hamster ovary (CHO) cells using Lipofectamine 2000 (Invitrogen) according to the manufacturer's instructions. Stably transfected clones were selected by blasticidin (5 μg/ml) and protein expression was quantified by SDS-PAGE and Western blot under reducing conditions using anti-mouse GARP and anti-mouse Fc antibody. Recombinant GARP-Fc was purified from cell culture supernatants by protein A affinity chromatography (GE Health).
TGF-β1, GARP, and GARP-TGF-β1 analysis. Active TGF-β1, total TGF-β1, and soluble GARP were measured in human and mouse serum using TGF-β1 and GARP ELISA kits (BioLegend, San Diego, Calif.) according to the manufacturer's protocols. To measure GARP-TGF-β1 complex by ELISA, 96-well plates were coated with TGF-β1 capture antibody according to the manufacturer's instructions (BioLegend, San Diego, Calif.). Samples were incubated for 2 h at room temperature followed by the incubation with the anti-hGARP detection antibody developed in our lab for another 2 h.
(ELISA stands for enzyme-linked immunosorbent assay.)

In a further assay the test system is NMuMG cells. Nature of the assay: NMuMG cells stimulated with soluble GARP-Fc (morphology, vimentin Western blot). In kind it is cell-based, murine. The procedure: Protein extraction, immunoprecipitation, and Western blot analysis. Cells were harvested by trypsin-EDTA when necessary, washed in PBS, and lysed on ice in radio-immunoprecipitation assay (RIPA) lysis buffer in the presence of a protease inhibitor cocktail (Sigma-Aldrich). Nuclear-free protein lysate was quantified by Bradford assay (Bio-Rad), and an equal amount of lysate was analysed by SDS-PAGE and Western blot under reducing conditions using anti-mouse GARP (AF6229; R&D system), anti-mouse Vimentin (D21H3; Cell signaling), anti-mouse E-Cadherin (24E10; Cell Signaling) and anti-mouse p-Smad-2/3 (EP823Y; Abcam).
Cell proliferation and in vitro wound healing assay. NMuMG cells (4×10^5) were starved overnight in serum free DMEM (Corning cellgro). Starved cells were cultured at the indicated times with GARP-Fc in 2% FBS DMEM. […] Proliferation was determined with 3-[4,5 dimethylthiazol-2-yl]-2,5-diphenyltetrazolium bromide (MTT), which was added to the cells at the indicated times and incubated for an additional 3 h at 37° C. […] Absorbance at 570 nm was then measured using a plate reader. The cell migration was measured by the wound-healing assay: at 100% confluence, two parallel wounds were made using a 1 ml pipette tip. Migration was assessed after 24, 48 and 72 hours and quantification of wound closure was measured using the ImageJ software (NIH).

A further assay has as its target T1, mouse GARP (Mus musculus, UniProt G3XA59).
T1 sequence (G3XA59 18-663): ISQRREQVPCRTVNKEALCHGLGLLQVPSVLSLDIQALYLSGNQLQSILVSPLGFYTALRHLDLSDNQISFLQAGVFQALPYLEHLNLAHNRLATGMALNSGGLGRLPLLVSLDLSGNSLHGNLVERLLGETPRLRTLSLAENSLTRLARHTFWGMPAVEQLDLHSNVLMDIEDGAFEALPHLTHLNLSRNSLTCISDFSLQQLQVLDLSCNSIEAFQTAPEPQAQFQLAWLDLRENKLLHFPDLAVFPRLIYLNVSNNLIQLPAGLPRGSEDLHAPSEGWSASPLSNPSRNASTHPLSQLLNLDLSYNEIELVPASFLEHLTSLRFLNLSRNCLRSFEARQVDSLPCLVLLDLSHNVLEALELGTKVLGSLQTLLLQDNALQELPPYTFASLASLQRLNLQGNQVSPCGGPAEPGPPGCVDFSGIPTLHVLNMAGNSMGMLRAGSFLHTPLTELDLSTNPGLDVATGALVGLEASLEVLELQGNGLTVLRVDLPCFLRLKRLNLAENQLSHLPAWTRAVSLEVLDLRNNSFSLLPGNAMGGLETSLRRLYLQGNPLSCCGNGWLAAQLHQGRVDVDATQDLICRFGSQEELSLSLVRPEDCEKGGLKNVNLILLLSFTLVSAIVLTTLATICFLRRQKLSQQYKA
Put plainly: Cross-reactivity of anti-GARP mAb clones against mouse GARP. It is filed as binding.

Assay [1] addresses T2, binding of exogenous human LTGFβ-1 (huLTGFβ-1) to surface GARP (Homo sapiens, UniProt Q14392).
T2 construct: expressed in transfected cells; host or cells: murine Pre-B leukemia line 70Z/3 stably transduced with human GARP (MigR1 retroviral vector)
T2 sequence (Q14392 20-662): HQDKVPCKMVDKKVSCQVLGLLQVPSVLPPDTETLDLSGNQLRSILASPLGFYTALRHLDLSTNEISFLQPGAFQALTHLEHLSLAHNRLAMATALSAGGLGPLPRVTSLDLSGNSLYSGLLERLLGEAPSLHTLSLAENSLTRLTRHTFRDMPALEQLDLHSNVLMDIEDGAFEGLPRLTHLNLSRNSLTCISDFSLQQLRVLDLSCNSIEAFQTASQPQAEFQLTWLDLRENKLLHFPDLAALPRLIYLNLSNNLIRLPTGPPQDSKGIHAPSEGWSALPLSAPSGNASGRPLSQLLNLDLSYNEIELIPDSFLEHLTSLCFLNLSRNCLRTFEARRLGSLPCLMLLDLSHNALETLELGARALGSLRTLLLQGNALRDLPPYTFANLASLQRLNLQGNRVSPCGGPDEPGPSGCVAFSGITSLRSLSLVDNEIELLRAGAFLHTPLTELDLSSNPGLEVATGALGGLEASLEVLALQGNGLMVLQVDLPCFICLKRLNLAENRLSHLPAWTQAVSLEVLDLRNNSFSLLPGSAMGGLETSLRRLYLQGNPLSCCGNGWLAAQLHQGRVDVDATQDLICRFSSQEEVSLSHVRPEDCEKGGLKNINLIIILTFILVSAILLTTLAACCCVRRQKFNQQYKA
Put plainly: Blocking of exogenous huLTGF-β binding to surface GARP on Pre-B-hGARP cells. In kind it is cell-based. To be noted: staining for cell surface huLTGF-β. The method, then:
FIGS. 7A-7E. GARP-specific antibodies block binding of exogenous LTGF-β to GARP and have therapeutic values against a preclinical model of breast cancer. (7A) Surface staining of Pre-B cells stably expressing human GARP (Pre-B-hGARP) by various GARP antibodies. Grey histogram represents staining with isotype control antibody. (7B) Pre-B-hGARP cells were incubated without or with human LTGF-β (huLTGF-β), in the presence of various GARP antibodies or Isotype control antibody, followed by staining for cell surface huLTGF-β. (7C) BALB/c mice were injected with 4T1-huGARP mammary tumors orthotopically, followed by indicated treatment regimen. Data shown are the comparisons of primary tumor weight isolated at 35 days (left panel, combined treatment group) or 30 days (right panel, antibody treatment alone) after inoculation. (7D) Impact of anti-GARP antibody treatment alone (left panel) or in combination with CY on the number of metastatic tumor nodules in the lungs. (7E) Percentage of splenic Tregs and MDSCs in the spleen of mice treated with isotype control antibody or anti-GARP antibody (4D3). Two sample t-tests were used to compare group differences in all panels. *P<0.05. ***P<0.001.

Assay [2] deals with human GARP-expressing 4T1 tumor cells. Nature of the assay: 4T1-huGARP orthotopic mammary tumor model, GARP antibody therapy. It is filed as in vivo, BALB/c mice. To be noted: for primary tumor growth: antibody 0.1 mg/mouse i.p. three times per week, with or without a single dose of CY, vs isotype control. The method, then: 4T1 Tumor model and GARP antibody therapy. Female BALB/c mice, 6-8-week old were inoculated in the fourth mammary fat pad subcutaneously (s.q.) with 5×10^5 cells (4T1 EV, 4T1 GARP, or 4T1 GARP-Fc). Tumor growth was monitored three times per week with a digital vernier caliper and tumor volume was calculated using the following formula: tumor volume (mm^3)=[(width)^2×length][…]. In GARP antibody therapy experiments, beginning at 3 days post-tumor inoculation, anti-GARP antibody or polyclonal isotype-controlled antibody (0.1 mg/mouse in 0.1 mL PBS; three times per week) were administered intraperitoneally (i.p.) into mice. […] At end-point, mice were sacrificed and the primary tumor, draining LNs, spleen, lungs and liver were isolated. Tumor infiltrated lymphocytes were isolated by Collagenase D (Sigma) digestion followed by Histopaque-1083 (Sigma) mediated density separation.

Setting [3] is: spleen, vs isotype control antibody.

Turning to `O=P1(N(CCCl)CCCl)NCCCO1` (stereo not shown) [Cy, cyclophosphamide], in the assay with B16-F1 melanomas, the “tumor control without T cell transfer” value is reported as “failed to control tumors”.

B1: GARP-Fc: fusion protein consisting of the N-terminal extracellular domain of GARP linked to an Fc domain of IgG (protein)
chain: ISQRREQVPCRTVNKEALCHGLGLLQVPSVLSLDIQALYLSGNQLQSILVSPLGFYTALRHLDLSDNQISFLQAGVFQALPYLEHLNLAHNRLATGMALNSGGLGRLPLLVSLDLSGNSLHGNLVERLLGETPRLRTLSLAENSLTRLARHTFWGMPAVEQLDLHSNVLMDIEDGAFEALPHLTHLNLSRNSLTCISDFSLQQLQVLDLSCNSIEAFQTAPEPQAQFQLAWLDLRENKLLHFPDLAVFPRLIYLNVSNNLIQLPAGLPRGSEDLHAPSEGWSASPLSNPSRNASTHPLSQLLNLDLSYNEIELVPASFLEHLTSLRFLNLSRNCLRSFEARQVDSLPCLVLLDLSHNVLEALELGTKVLGSLQTLLLQDNALQELPPYTFASLASLQRLNLQGNQVSPCGGPAEPGPPGCVDFSGIPTLHVLNMAGNSMGMLRAGSFLHTPLTELDLSTNPGLDVATGALVGLEASLEVLELQGNGLTVLRVDLPCFLRLKRLNLAENQLSHLPAWTRAVSLEVLDLRNNSFSLLPGNAMGGLETSLRRLYLQGNPLSCCGNGWLAAQLHQGRVDVDATQDLICRFGSQEELSLSLVRPEDCEKGGLKNVN
modifications: left off: a dimerising Fc or GST
notes: fusion protein consisting of the N-terminal extracellular domain of GARP linked to an Fc domain of IgG
Consider B1, for which, in the assay on active TGF-β1, the “association between GARP-Fc and active TGF-β1” value is listed as “direct association”. Further, in the assay on NMuMG cells (Western blot, indicated times and increasing doses), the vimentin expression entry is “time- and dose-dependent upregulation”. In addition, the cell morphology change entry with NMuMG cells (serum-free medium, within 24 hours) was “spindle-shaped morphology”.

B2: 4D3: anti-GARP monoclonal antibody (IgG1); VH SEQ ID NO: 4, VL SEQ ID NO: 8 (antibody, listed as Homo sapiens, V domains shown)
VH: LDVQLQESGPGLVKPSQSLSLTCTVTGYSITSDYAWNWIRQFPGNKLEWMGYISYSGSTSYTPSLKSRISITRDTSKNHFFLQSNSVTTEDTATYYCAKSGGDYYGSSSYWYFDVWGAGTTVTVSS
VL: DIQMTQSPSSLSVSAGEKVTMSCKSSQSLLNSRSQKNYLAWYQQKPGQPPKLLIYRASTRGSGVPDRFTGSGSGTDFTLTISSVQAEDLAVYYCQNDHSYPFTFGSGTKLEIK
On to B2, for which the “cross-reactivity against mouse GARP” value with mouse GARP is “low level of cross-reactivity”. Further, in assay [1], the “block of binding of exogenous human LTGFβ-1 to surface GARP” value is given as “only clone able to block”. Moreover, the primary tumor growth result in assay [2] is recorded as “modestly inhibited”. In addition, in assay [2] (setting [3]), the “splenic Gr1+CD11b+ myeloid-derived suppressor cells (MDSCs)” value is “significant reduction” and the “splenic Tregs” value is listed as “significant reduction”.

B3: 5C5: second anti-GARP mAb (IgG2a); VH SEQ ID NO: 12, VL SEQ ID NO: 16 (antibody, listed as Homo sapiens, V domains shown)
VH: EVKLVESGGGSVKPGGSLKLSCAASGFTFSNYVMSWVRQTPEKRLEWVATISSGGSYTYYPDSVKGRLTISRDNAKNTLYLQMSSLRSEDTAMYYCARGYDNGDYVMDYWGQGTSVTVSS
VL: DIVLTQSPASLAVSLGQRATISCRASESVDTYGNSFMHWYQQIPGQPPKVLIYRASNLESGIPARFSGSGSRTDFTLTINPVEAGDVATYYCQQTNEHPPTFGGGTKLEIK
Consider B3, for which the primary tumor growth result in assay [2] is listed as “modestly inhibited”.

These data come from US11046782B2, “Methods for treatment and diagnosis of cancer by targeting glycoprotein A repetitions predominant (GARP) and for providing effective immunotherapy alone or in combination” (MUSC FOUNDATION FOR RESEARCH DEVELOPMENT, priority 2016, dated 2021).
